Measurements published in patent publication US20240400677A1 (ELECTRA THERAPEUTICS, published 2024).

Legend:
[1] = target: T1, cynomolgus monkey SIRPα on CHO cells (cynomolgus monkey, UniProt A0A2K5VYQ9 31-507); test: flow cytometry, CHO transfectants, anti-human IgG
T1 construct: whole, on cells; also called Cyno SIRPα CHO
T1 sequence: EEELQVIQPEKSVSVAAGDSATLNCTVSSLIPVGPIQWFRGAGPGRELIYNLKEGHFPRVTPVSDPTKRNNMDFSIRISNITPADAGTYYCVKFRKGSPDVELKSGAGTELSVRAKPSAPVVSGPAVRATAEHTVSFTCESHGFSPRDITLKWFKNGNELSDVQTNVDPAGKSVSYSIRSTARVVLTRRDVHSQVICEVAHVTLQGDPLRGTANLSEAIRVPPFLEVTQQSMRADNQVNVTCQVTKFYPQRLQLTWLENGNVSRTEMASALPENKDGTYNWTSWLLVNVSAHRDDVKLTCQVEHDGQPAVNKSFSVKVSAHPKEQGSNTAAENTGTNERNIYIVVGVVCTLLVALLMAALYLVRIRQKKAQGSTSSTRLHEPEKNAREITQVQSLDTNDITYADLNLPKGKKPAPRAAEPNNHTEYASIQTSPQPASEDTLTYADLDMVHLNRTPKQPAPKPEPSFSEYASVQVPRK
Procedure: (§1) Selected antibodies were tested for binding to stably transfected human SIRPγ, SIRPαV1, or SIRPβ1 (co-transfected with DAP12) Chinese hamster ovary (CHO) cells via flow cytometry. A titration of select antibodies was added to the cells and detected using a fluorescently labelled secondary anti-rat IgG antibody or anti-human IgG antibody. Graphs depict the median fluorescence intensity (MFI) at each concentration. FIGS. 5A and 5G show the binding curves of select antibodies to human SIRPγ, cynomolgus monkey SIRPγ, human SIRPα, cynomolgus monkey SIRPα, human SIRPβ1, or cynomolgus monkey SIRPβl-expressing CHO cells detected using an anti-rat IgG antibody. FIGS. 5B-5F and 5H-5L show the binding curves of select antibodies to human SIRPγ, cynomolgus monkey SIRPγ, human SIRPα, cynomolgus monkey SIRPα, human SIRPβ1, or cynomolgus monkey SIRPβ1-expressing CHO cells detected using an anti-human IgG antibody. […] For select antibodies, each myc-tagged SIRPγ scFv antibody as crude PPE was incubated with each of the SIRP-expressing cell lines stated above along with the parental CHO-K1 cell line. […] Fold change value <2.0 is considered a non-binder.

[2] = target: T2, human SIRPβ1 on CHO cells (co-transfected with DAP12) (human, UniProt O00241 30-398); test: flow cytometry, CHO transfectants, anti-human IgG
T2 construct: whole, on cells; co-transfected with DAP12; also called Human SIRPβ1 CHO
Procedure: as §1

[3] = target: T3, extracellular binding domain of human SIRPγ (plate-coated) (human, UniProt Q9P1W8 29-360); test: ELISA, coated SIRP ECD (2 µg/mL), anti-human IgG, luminescence
T3 construct: also called hSIRPγ
Procedure: (§2) Selected hybridoma supernatants of Example 1 were tested for binding to human SIRPγ, cynomolgus monkey SIRPγ, human SIRPα V1, cynomolgus monkey SIRPα, human SIRPβ1, and cynomolgus monkey SIRPβ1 by enzyme-linked immunosorbent assay (ELISA). Briefly, 2 μg/mL of the extracellular domain of SIRP protein was coated onto high protein-binding plates and blocked. Undiluted supernatants were added to coated plates. The antibodies were detected by an anti-rat antibody and a chemiluminescent substrate. […] The data depict the relative luminescence units read by a plate-reader capable of detecting chemiluminescence.
(§3) FIGS. 2A-2G show binding curves of SIRPγ antibodies and human Fc isotype controls to human SIRPγ, cynomolgus monkey SIRPγ, human SIRPα V1, human SIRPα V2, and human SIRPβ1 by ELISA. […] Isotype control 2 was an unrelated human IgG1 antibody with irrelevant CDRs with no modifications in the Fc region. DNA was transiently transfected into Expi293F cells for 5 days. Antibodies were purified by Protein A from cell supernatants and analyzed in a titration via ELISA as previously described in FIG. 1 using an anti-human IgG antibody as the detection antibody.

[4] = target: T4, Cynomolgus Monkey SIRPγ (plate-coated extracellular domain); test: as above
T4 construct: also called Cyno SIRPγ
T4 extracellular domain: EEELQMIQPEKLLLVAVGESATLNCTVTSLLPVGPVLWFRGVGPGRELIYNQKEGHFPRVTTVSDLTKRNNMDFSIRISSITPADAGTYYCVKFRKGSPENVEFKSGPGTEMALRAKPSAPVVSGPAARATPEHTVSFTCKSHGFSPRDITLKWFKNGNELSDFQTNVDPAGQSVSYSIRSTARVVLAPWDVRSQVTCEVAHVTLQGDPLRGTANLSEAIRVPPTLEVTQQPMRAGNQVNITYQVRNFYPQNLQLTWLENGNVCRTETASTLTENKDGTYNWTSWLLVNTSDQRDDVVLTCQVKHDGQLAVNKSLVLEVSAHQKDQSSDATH
Procedure: as §2, §3

[5] = target: T5, cynomolgus monkey SIRPγ-His monomer protein (cynomolgus monkey, UniProt Q9P1W8 29-359 (human entry), limits assumed); test: BLI Octet, captured scFv PPE, cyno SIRP
T5 construct: also called Cyno SIRPγ; Cyno SIRPγ-His
T5 chain: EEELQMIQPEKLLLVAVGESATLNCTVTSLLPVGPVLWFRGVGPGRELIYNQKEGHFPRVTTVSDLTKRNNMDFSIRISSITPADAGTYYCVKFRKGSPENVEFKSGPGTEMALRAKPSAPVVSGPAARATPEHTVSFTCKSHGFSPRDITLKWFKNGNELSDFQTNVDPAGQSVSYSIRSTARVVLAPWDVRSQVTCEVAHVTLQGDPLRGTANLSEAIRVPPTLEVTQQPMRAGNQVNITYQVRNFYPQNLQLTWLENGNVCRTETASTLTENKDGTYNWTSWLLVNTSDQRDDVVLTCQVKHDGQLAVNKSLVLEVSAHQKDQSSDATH
Procedure: Unique binders were further tested for binding to human SIRPαV1, human SIRPαV2, and human SIRPβ1. Briefly, biotinylated anti-V5 was immobilized onto streptavidin biosensors. Each V5-tagged SIRPγ scFv antibody as crude PPE was captured by the anti-V5 antibody. SIRP-His monomer protein at 500 nM was exposed to the biosensor for binding to SIRP scFv. The biosensors were then exposed to wash buffer to measure off-rate kinetics. The resulting association and dissociation kinetics (kdis) was analyzed. […] Similarly, cross-reactivity to cynomolgus monkey SIRPγ, cynomolgus monkey SIRPα, and cynomolgus monkey SIRPβ1 were tested.

[6] = target: T6, human SIRPγ-His monomer protein (human, UniProt Q9P1W8 29-360); test: BLI Octet, V5-scFv PPE captured, SIRP-His 500 nM
T6 construct: also called hSIRPγ

[7] = target: T2, human SIRPβ1 on CHO cells …; test: flow cytometry
[8] = target: T7, human SIRPγ on stably transfected CHO cells (human, UniProt Q9P1W8 29-387); test: flow cytometry, myc-scFv PPE
T7 construct: also called Human SIRPγ CHO
Procedure: as §1

[9] = target: T8, cynomolgus monkey SIRPγ on CHO cells (cynomolgus monkey, UniProt Q9P1W8 29-386 (human entry)); test: flow cytometry, myc-scFv PPE
T8 construct: also called Cyno SIRPγ CHO
T8 chain: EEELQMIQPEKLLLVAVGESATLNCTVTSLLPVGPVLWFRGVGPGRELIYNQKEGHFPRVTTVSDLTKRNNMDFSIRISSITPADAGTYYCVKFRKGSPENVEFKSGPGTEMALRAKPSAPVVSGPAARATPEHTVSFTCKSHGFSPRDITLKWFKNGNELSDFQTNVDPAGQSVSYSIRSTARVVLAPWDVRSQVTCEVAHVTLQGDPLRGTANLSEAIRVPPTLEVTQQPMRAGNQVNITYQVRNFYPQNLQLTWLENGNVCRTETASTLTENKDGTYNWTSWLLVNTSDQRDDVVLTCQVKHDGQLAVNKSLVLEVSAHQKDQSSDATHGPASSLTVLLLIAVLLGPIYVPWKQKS
Procedure: as §1

T6 sequence (Q9P1W8 29-360 limits assumed): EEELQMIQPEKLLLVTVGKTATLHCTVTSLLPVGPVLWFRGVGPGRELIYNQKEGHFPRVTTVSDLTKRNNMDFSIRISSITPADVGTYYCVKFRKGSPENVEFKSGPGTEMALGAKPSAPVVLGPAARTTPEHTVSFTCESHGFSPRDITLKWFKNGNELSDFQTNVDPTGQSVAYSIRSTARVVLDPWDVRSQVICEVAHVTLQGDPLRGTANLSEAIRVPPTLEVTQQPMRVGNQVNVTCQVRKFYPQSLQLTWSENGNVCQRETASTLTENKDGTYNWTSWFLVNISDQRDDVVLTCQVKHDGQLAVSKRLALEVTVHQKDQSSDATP
T3 sequence (Q9P1W8 29-360 limits assumed): as above
T7 sequence (Q9P1W8 29-387 limits assumed): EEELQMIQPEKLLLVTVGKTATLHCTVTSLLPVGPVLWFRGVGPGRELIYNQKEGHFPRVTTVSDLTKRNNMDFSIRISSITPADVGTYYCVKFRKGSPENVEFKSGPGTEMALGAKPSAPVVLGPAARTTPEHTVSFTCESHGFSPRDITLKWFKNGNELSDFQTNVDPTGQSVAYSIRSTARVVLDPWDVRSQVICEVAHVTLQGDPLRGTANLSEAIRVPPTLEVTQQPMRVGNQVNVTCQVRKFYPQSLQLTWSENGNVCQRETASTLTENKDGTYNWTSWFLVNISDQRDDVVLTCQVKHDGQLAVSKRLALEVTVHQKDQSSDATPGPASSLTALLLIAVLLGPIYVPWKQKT
T2 sequence (O00241 30-398): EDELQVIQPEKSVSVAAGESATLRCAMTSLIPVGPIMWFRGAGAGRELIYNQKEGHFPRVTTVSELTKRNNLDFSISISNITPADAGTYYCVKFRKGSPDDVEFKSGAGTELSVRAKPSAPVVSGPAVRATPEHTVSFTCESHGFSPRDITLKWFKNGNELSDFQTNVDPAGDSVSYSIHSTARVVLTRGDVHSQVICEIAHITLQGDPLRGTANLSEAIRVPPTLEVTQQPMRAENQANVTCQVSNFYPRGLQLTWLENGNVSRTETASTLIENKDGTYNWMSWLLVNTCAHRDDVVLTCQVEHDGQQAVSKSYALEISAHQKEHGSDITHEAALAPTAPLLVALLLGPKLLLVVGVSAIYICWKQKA

B1: Antibody 59 (antibody, V domains shown)
VH: QVQLVQSGAEVKKPGASVKVSCKASGYTFTSYDINWVRQAPGQGLEWMGWMNPNSGNTGYAQKFQGRVTMTRDTSTSTVYMELSSLRSEDTAVYYCARESYAYCSSTSCYDAFDIWGQGTMVTVSS
VL: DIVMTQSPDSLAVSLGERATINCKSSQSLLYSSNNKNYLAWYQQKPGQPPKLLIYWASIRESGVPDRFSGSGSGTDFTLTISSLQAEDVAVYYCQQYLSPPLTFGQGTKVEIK
With B1 the binding result [1] was “no binding (tested: about 20 µg/mL)”, the binding result [2] was “no binding (tested: about 20 µg/mL)” and the “EC50 (read off the curve)” value [3] was ~0.08 µg/mL. The “EC50 (read off the curve)” value [4] was ~0.3 µg/mL.

B2: Antibody 63 (antibody, V domains shown)
VH: QVQLVQSGAEVKKPGASVKVSCKASGYTFTGYYMHWVRQAPGQGLEWMGIINPSGGSTNYAQKFQGRVTMTRDTSTSTVYMELSSLRSEDTAVYYCARGPIGYGMDVWGQGTLVTVSS
VL: DIQMTQSPSSLSASVGDRVTITCRASQGIGNDLGWYQQKPGKAPKLLIYAASNLETGVPSRFSGSGSGTDFTLTISSLQPEDFATYYCLQHHSYPFTFGQGTKLEIK
In the case of B2, the binding result [1] is reported as “no binding (tested: about 20 µg/mL)”, the binding result [2] is reported as “no binding (tested: about 20 µg/mL)” and the “EC50 (read off the curve)” value [3] is reported as ~0.8 µg/mL. For the same binder, the “EC50 (read off the curve)” value [4] was ~1 µg/mL.

B3: Antibody 68 (antibody, V domains shown)
VH: QVQLVQSGAEVKKPGASVKVSCKASGYTFTSYYMYWVRQAPGQGLEWMGWINPNSGNTGYAQKFQGRVTMTRDTSTSTVYMELSSLRSEDTAVYYCAKDRRRGVGLAAAGTSAFDIWGQGTMVTVSS
VL: DIQMTQSPSSLSASVGDRVTITCRASQSISNWLAWYQQKPGKAPKLLIYAASSLQSGVPSRFSGSGSGTDFTLTISSLQPEDFATYYCQQSYSTPYTFGQGTKLEIK
In the case of B3, the binding result [1] is reported as “no binding (tested: about 20 µg/mL)”, the binding result [2] is reported as “no binding (tested: about 20 µg/mL)” and the “EC50 (read off the curve)” value [3] is reported as ~0.5 µg/mL. For the same binder, the “EC50 (read off the curve)” value [4] was ~1 µg/mL.

B4: Antibody 70 (antibody, V domains shown)
VH: QVQLVQSGAEVKKPGASVKVSCKASGYTFSNYYMHWVRQAPGQGLEWMGWMNPNSGNTGYAQKFQGRVTMTRDTSTSTVYMELSSLRSEDTAVYYCARASMYSSSGFDYWGQGTLVTVSS
VL: DIVMTQSPLSLPVTPGEPASISCRSSQSLLHSNGYNYLDWYLQKPGQSPQLLIYLASTRAPGVPDRFSGSGSGTDFTLKISRVEAEDVGVYYCMQGSHWPPSFGQGTRLEIK
For B4, the binding result [1] was “no binding (tested: about 20 µg/mL)”, the binding result [2] was “no binding (tested: about 20 µg/mL)” and the “EC50 (read off the curve)” value [3] was ~0.03 µg/mL. For the same binder, the “EC50 (read off the curve)” value [4] was ~0.05 µg/mL.

B5: Antibody 72 (antibody, V domains shown)
VH: QVQLVQSGAEVKKPGASVKVSCKASGYTFTDNYLHWVRQAPGQGLEWMGIIETSGGSTDYAQKFQGRVTMTRDTSTSTVYMELSSLRSEDTAVYYCARSFGGYSYDDAFDIWGQGTTVTVSS
VL: DIQMTQSPSSLSASVGDRVTITCQASQGISNYLNWYQQKPGKAPKLLIYAASSLQSGVPSRFSGSGSGTDFTLTISSLQPEDFATYYCQQSYSSPYTFGQGTKVEIK
For B5, the binding result [1] was “no binding (tested: about 20 µg/mL)”, the binding result [2] was “no binding (tested: about 20 µg/mL)” and the “EC50 (read off the curve)” value [3] was ~0.2 µg/mL. The “EC50 (read off the curve)” value [4] was ~0.3 µg/mL.

B6: Antibody 46 (scFv, V domains shown)
VH: QVQLVQSGAEVKKPGASVKVSCKASGYTFSSYAISWVRQAPGQGLEWMGWMDPNSGNTGYAQKFQGRVTMTRDTSTSTVYMELSSLRSEDTAVYYCARESSYYYDSSGYYPGWYFDLWGRGTLVTVSS
VL: DIQMTQSPSSLSASVGDRVTITCQASQDISNYLNWYQQKPGKAPKLLIYAASTLQTGVPSRFSGSGSGTDFTLTISSLQPEDFATYYCQQSYSTPWTFGPGTKVDIK
notes: scFv in crude PPE, V5/myc-tagged
B6 was tested, and the binding result [5] was “binds”, the kdis [6] was > 0.01 s⁻¹ and the binding result [7] was “no binding (tested: fold change <2.0)”. For the same binder, the “MFI fold change over parental CHO” value [8] was 13.1 fold and the “MFI fold change over parental CHO” value [9] was 16 fold.

B7: Antibody 11 (scFv, V domains shown)
VH: QVQLVQSGAEVKKPGASVKVSCKASGYTFTSYDINWVRQAPGQGLEWMGWMNPNSGNTGYAQKFQGRVTMTRDTSTSTVYMELSSLRSEDTAVYYCAKGAVAGTYYYYGMDVWGQGTTVTVSS
VL: DIQMTQSPSSLSASVGDRVTITCRASQTINNYLNWYQQKPGKAPKLLIYDASNLETGVPSRFSGSGSGTDFTLTISSLQPEDFATYYCQQANSFPLTFGQGTKVEIK
notes: as for B6
For B7, the binding result [5] was “binds”, the kdis [6] was 0.001 to 0.01 s⁻¹ and the binding result [7] was “no binding (tested: fold change <2.0)”. The “MFI fold change over parental CHO” value [8] was 3.98 fold and the “MFI fold change over parental CHO” value [9] was 6.18 fold.

B8: Antibody 12 (scFv, V domains shown)
VH: QVQLVQSGAEVKKPGASVKVSCKASGGTFGSYGINWVRQAPGQGLEWMGWISAYNGNTNYAQKLQGRVTMTRDTSTSTVYMELSSLRSEDTAVYYCARDGIDYGGNSGYDYWGQGTLVTVSS
VL: DIQMTQSPSSLSASVGDRVTITCRASQNIRNYLNWYQQKPGKAPKLLIYAASSLQGGVPSRFSGSGSGTDFTLTISSLQPEDFATYYCQQSYNGPYTFGQGTKVEIK
notes: as for B6
In the case of B8, the binding result [5] is reported as “binds”, the kdis [6] is reported as 0.001 to 0.01 s⁻¹ and the binding result [7] is reported as “no binding (tested: fold change <2.0)”. For the same binder, the “MFI fold change over parental CHO” value [8] was 10.7 fold and the “MFI fold change over parental CHO” value [9] was 5.94 fold.
